# Experimental data from patent US20180009867A1.
# Target: IL-1 receptor
# Test: SPR, immobilized IL-1 receptor
row,Kd,Substance
1,0.23 nM,mutant chicken interleukin-1β protein having T117A mutation (ligand)
2,0.12 nM,wild-type chicken interleukin-1β (ligand)
3,0.37 nM,mutant chicken interleukin-1β protein having E118K mutation (ligand)
